Test results taken from US20210388087A1 (Chugai, published 2021).

Target: T1, CD3 epsilon homodimer protein (UniProt P07766 23-126)
T1 construct: also called CD3 (CD3 epsilon)
Experiment: SPR, CD3 epsilon homodimer on chip, one-arm antibody as analyte;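 note: surface plasmon resonance at 25 °C with CD3 epsilon homodimer amine-coupled to a CM4 sensor chip, antibody injected as analyte, HBS-EP+ as running buffer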

T1 sequence (P07766 23-126): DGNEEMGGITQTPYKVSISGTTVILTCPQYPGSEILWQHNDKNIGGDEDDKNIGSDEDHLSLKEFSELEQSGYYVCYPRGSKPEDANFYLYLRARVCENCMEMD

Binder | KD ratio (KD of CE115HA000/KD of altered form)
CE115HA000 D101M (antibody, human IgG1, kappa, L234A L235A, N297A, name in Kabat numbering, one-arm antibody) heavy: QVQLVESGGGVVQPGRSLRLSCAASGFTFSNAWMHWVRQAPGKGLEWVAQIKAKSNNYATYYAESVKGRFTISRDDSKNSLYLQMNSLKTEDTAVYYCRYVHYGAYYGVMAWGQGTTVTVSSASTKGPSVFPLAPSSKSTSGGTAALGCLVKDYFPEPVTVSWNSGALTSGVHTFPAVLQSSGLYSLSSVVTVPSSSLGTQTYICNVNHKPSNTKVDKKVEPKSCDKTHTCPPCPAPEAAGGPSVFLFPPKPKDTLMISRTPEVTCVVVDVSHEDPEVKFNWYVDGVEVHNAKTKPREEQYASTYRVVSVLTVLHQDWLNGKEYKCKVSNKALPAPIEKTISKAKGQPREPQVYTLPPSRCELTKNQVSLSCAVKGFYPSDIAVEWESNGQPENNYKTTPPVLDSDGSFFLVSKLTVDKSRWQQGNVFSCSVMHEALHNHYTQKSLSLSPDYKDDDDK EPKSSDKTHTCPPCPAPELLGGPSVFLFPPKPKDTLMISRTPEVTCVVVDVSHEDPEVKFNWYVDGVEVHNAKTKPREEQYNSTYRVVSVLTVLHQDWLNGKEYKCKVSNKALPAPIEKTISKAKGQPREPQVCTLPPSRDELTKNQVSLWCLVKGFYPSDIAVEWESNGQPENNYKTTPPVLDSDGSFFLYSKLTVDKSRWQQGNVFSCSVMHEALHNRYTQKSLSLSP light: DIVMTQSPLSLPVTPGEPASISCRSSQSLVHSNRNTYLHWYQQKPGQAPRLLIYKVSNRFSGVPDRFSGSGSGTDFTLKISRVEAEDVGVYYCGQGTQVPYTFGQGTKLEIKRTVAAPSVFIFPPSDEQLKSGTASVVCLLNNFYPREAKVQWKVDNALQSGNSQESVTEQDSKDSTYSLSSTLTLSKADYEKHKVYACEVTHQGLSSPVTKSFNRGEC | 1.94
CE115HA000 D101P (antibody, human IgG1, kappa, L234A L235A, N297A, name in Kabat numbering, one-arm antibody) heavy: QVQLVESGGGVVQPGRSLRLSCAASGFTFSNAWMHWVRQAPGKGLEWVAQIKAKSNNYATYYAESVKGRFTISRDDSKNSLYLQMNSLKTEDTAVYYCRYVHYGAYYGVPAWGQGTTVTVSSASTKGPSVFPLAPSSKSTSGGTAALGCLVKDYFPEPVTVSWNSGALTSGVHTFPAVLQSSGLYSLSSVVTVPSSSLGTQTYICNVNHKPSNTKVDKKVEPKSCDKTHTCPPCPAPEAAGGPSVFLFPPKPKDTLMISRTPEVTCVVVDVSHEDPEVKFNWYVDGVEVHNAKTKPREEQYASTYRVVSVLTVLHQDWLNGKEYKCKVSNKALPAPIEKTISKAKGQPREPQVYTLPPSRCELTKNQVSLSCAVKGFYPSDIAVEWESNGQPENNYKTTPPVLDSDGSFFLVSKLTVDKSRWQQGNVFSCSVMHEALHNHYTQKSLSLSPDYKDDDDK EPKSSDKTHTCPPCPAPELLGGPSVFLFPPKPKDTLMISRTPEVTCVVVDVSHEDPEVKFNWYVDGVEVHNAKTKPREEQYNSTYRVVSVLTVLHQDWLNGKEYKCKVSNKALPAPIEKTISKAKGQPREPQVCTLPPSRDELTKNQVSLWCLVKGFYPSDIAVEWESNGQPENNYKTTPPVLDSDGSFFLYSKLTVDKSRWQQGNVFSCSVMHEALHNRYTQKSLSLSP light: DIVMTQSPLSLPVTPGEPASISCRSSQSLVHSNRNTYLHWYQQKPGQAPRLLIYKVSNRFSGVPDRFSGSGSGTDFTLKISRVEAEDVGVYYCGQGTQVPYTFGQGTKLEIKRTVAAPSVFIFPPSDEQLKSGTASVVCLLNNFYPREAKVQWKVDNALQSGNSQESVTEQDSKDSTYSLSSTLTLSKADYEKHKVYACEVTHQGLSSPVTKSFNRGEC | 43.4
CE115HA000 D101N (antibody, human IgG1, kappa, L234A L235A, N297A, name in Kabat numbering, one-arm antibody) heavy: QVQLVESGGGVVQPGRSLRLSCAASGFTFSNAWMHWVRQAPGKGLEWVAQIKAKSNNYATYYAESVKGRFTISRDDSKNSLYLQMNSLKTEDTAVYYCRYVHYGAYYGVNAWGQGTTVTVSSASTKGPSVFPLAPSSKSTSGGTAALGCLVKDYFPEPVTVSWNSGALTSGVHTFPAVLQSSGLYSLSSVVTVPSSSLGTQTYICNVNHKPSNTKVDKKVEPKSCDKTHTCPPCPAPEAAGGPSVFLFPPKPKDTLMISRTPEVTCVVVDVSHEDPEVKFNWYVDGVEVHNAKTKPREEQYASTYRVVSVLTVLHQDWLNGKEYKCKVSNKALPAPIEKTISKAKGQPREPQVYTLPPSRCELTKNQVSLSCAVKGFYPSDIAVEWESNGQPENNYKTTPPVLDSDGSFFLVSKLTVDKSRWQQGNVFSCSVMHEALHNHYTQKSLSLSPDYKDDDDK EPKSSDKTHTCPPCPAPELLGGPSVFLFPPKPKDTLMISRTPEVTCVVVDVSHEDPEVKFNWYVDGVEVHNAKTKPREEQYNSTYRVVSVLTVLHQDWLNGKEYKCKVSNKALPAPIEKTISKAKGQPREPQVCTLPPSRDELTKNQVSLWCLVKGFYPSDIAVEWESNGQPENNYKTTPPVLDSDGSFFLYSKLTVDKSRWQQGNVFSCSVMHEALHNRYTQKSLSLSP light: DIVMTQSPLSLPVTPGEPASISCRSSQSLVHSNRNTYLHWYQQKPGQAPRLLIYKVSNRFSGVPDRFSGSGSGTDFTLKISRVEAEDVGVYYCGQGTQVPYTFGQGTKLEIKRTVAAPSVFIFPPSDEQLKSGTASVVCLLNNFYPREAKVQWKVDNALQSGNSQESVTEQDSKDSTYSLSSTLTLSKADYEKHKVYACEVTHQGLSSPVTKSFNRGEC | 2.28

Now from value to binder:

KD ratio (KD of CE115HA000/KD of altered form) | Binder
5.56 | CE115HA000 D101R (antibody, human IgG1, kappa, L234A L235A, N297A, name in Kabat numbering, one-arm antibody) heavy: QVQLVESGGGVVQPGRSLRLSCAASGFTFSNAWMHWVRQAPGKGLEWVAQIKAKSNNYATYYAESVKGRFTISRDDSKNSLYLQMNSLKTEDTAVYYCRYVHYGAYYGVRAWGQGTTVTVSSASTKGPSVFPLAPSSKSTSGGTAALGCLVKDYFPEPVTVSWNSGALTSGVHTFPAVLQSSGLYSLSSVVTVPSSSLGTQTYICNVNHKPSNTKVDKKVEPKSCDKTHTCPPCPAPEAAGGPSVFLFPPKPKDTLMISRTPEVTCVVVDVSHEDPEVKFNWYVDGVEVHNAKTKPREEQYASTYRVVSVLTVLHQDWLNGKEYKCKVSNKALPAPIEKTISKAKGQPREPQVYTLPPSRCELTKNQVSLSCAVKGFYPSDIAVEWESNGQPENNYKTTPPVLDSDGSFFLVSKLTVDKSRWQQGNVFSCSVMHEALHNHYTQKSLSLSPDYKDDDDK EPKSSDKTHTCPPCPAPELLGGPSVFLFPPKPKDTLMISRTPEVTCVVVDVSHEDPEVKFNWYVDGVEVHNAKTKPREEQYNSTYRVVSVLTVLHQDWLNGKEYKCKVSNKALPAPIEKTISKAKGQPREPQVCTLPPSRDELTKNQVSLWCLVKGFYPSDIAVEWESNGQPENNYKTTPPVLDSDGSFFLYSKLTVDKSRWQQGNVFSCSVMHEALHNRYTQKSLSLSP light: DIVMTQSPLSLPVTPGEPASISCRSSQSLVHSNRNTYLHWYQQKPGQAPRLLIYKVSNRFSGVPDRFSGSGSGTDFTLKISRVEAEDVGVYYCGQGTQVPYTFGQGTKLEIKRTVAAPSVFIFPPSDEQLKSGTASVVCLLNNFYPREAKVQWKVDNALQSGNSQESVTEQDSKDSTYSLSSTLTLSKADYEKHKVYACEVTHQGLSSPVTKSFNRGEC
3.55 | CE115HA000 D101Q (antibody, human IgG1, kappa, L234A L235A, N297A, name in Kabat numbering, one-arm antibody) heavy: QVQLVESGGGVVQPGRSLRLSCAASGFTFSNAWMHWVRQAPGKGLEWVAQIKAKSNNYATYYAESVKGRFTISRDDSKNSLYLQMNSLKTEDTAVYYCRYVHYGAYYGVQAWGQGTTVTVSSASTKGPSVFPLAPSSKSTSGGTAALGCLVKDYFPEPVTVSWNSGALTSGVHTFPAVLQSSGLYSLSSVVTVPSSSLGTQTYICNVNHKPSNTKVDKKVEPKSCDKTHTCPPCPAPEAAGGPSVFLFPPKPKDTLMISRTPEVTCVVVDVSHEDPEVKFNWYVDGVEVHNAKTKPREEQYASTYRVVSVLTVLHQDWLNGKEYKCKVSNKALPAPIEKTISKAKGQPREPQVYTLPPSRCELTKNQVSLSCAVKGFYPSDIAVEWESNGQPENNYKTTPPVLDSDGSFFLVSKLTVDKSRWQQGNVFSCSVMHEALHNHYTQKSLSLSPDYKDDDDK EPKSSDKTHTCPPCPAPELLGGPSVFLFPPKPKDTLMISRTPEVTCVVVDVSHEDPEVKFNWYVDGVEVHNAKTKPREEQYNSTYRVVSVLTVLHQDWLNGKEYKCKVSNKALPAPIEKTISKAKGQPREPQVCTLPPSRDELTKNQVSLWCLVKGFYPSDIAVEWESNGQPENNYKTTPPVLDSDGSFFLYSKLTVDKSRWQQGNVFSCSVMHEALHNRYTQKSLSLSP light: DIVMTQSPLSLPVTPGEPASISCRSSQSLVHSNRNTYLHWYQQKPGQAPRLLIYKVSNRFSGVPDRFSGSGSGTDFTLKISRVEAEDVGVYYCGQGTQVPYTFGQGTKLEIKRTVAAPSVFIFPPSDEQLKSGTASVVCLLNNFYPREAKVQWKVDNALQSGNSQESVTEQDSKDSTYSLSSTLTLSKADYEKHKVYACEVTHQGLSSPVTKSFNRGEC
0.91 | CE115HA000 D101S (antibody, human IgG1, kappa, L234A L235A, N297A, name in Kabat numbering, one-arm antibody) heavy: QVQLVESGGGVVQPGRSLRLSCAASGFTFSNAWMHWVRQAPGKGLEWVAQIKAKSNNYATYYAESVKGRFTISRDDSKNSLYLQMNSLKTEDTAVYYCRYVHYGAYYGVSAWGQGTTVTVSSASTKGPSVFPLAPSSKSTSGGTAALGCLVKDYFPEPVTVSWNSGALTSGVHTFPAVLQSSGLYSLSSVVTVPSSSLGTQTYICNVNHKPSNTKVDKKVEPKSCDKTHTCPPCPAPEAAGGPSVFLFPPKPKDTLMISRTPEVTCVVVDVSHEDPEVKFNWYVDGVEVHNAKTKPREEQYASTYRVVSVLTVLHQDWLNGKEYKCKVSNKALPAPIEKTISKAKGQPREPQVYTLPPSRCELTKNQVSLSCAVKGFYPSDIAVEWESNGQPENNYKTTPPVLDSDGSFFLVSKLTVDKSRWQQGNVFSCSVMHEALHNHYTQKSLSLSPDYKDDDDK EPKSSDKTHTCPPCPAPELLGGPSVFLFPPKPKDTLMISRTPEVTCVVVDVSHEDPEVKFNWYVDGVEVHNAKTKPREEQYNSTYRVVSVLTVLHQDWLNGKEYKCKVSNKALPAPIEKTISKAKGQPREPQVCTLPPSRDELTKNQVSLWCLVKGFYPSDIAVEWESNGQPENNYKTTPPVLDSDGSFFLYSKLTVDKSRWQQGNVFSCSVMHEALHNRYTQKSLSLSP light: DIVMTQSPLSLPVTPGEPASISCRSSQSLVHSNRNTYLHWYQQKPGQAPRLLIYKVSNRFSGVPDRFSGSGSGTDFTLKISRVEAEDVGVYYCGQGTQVPYTFGQGTKLEIKRTVAAPSVFIFPPSDEQLKSGTASVVCLLNNFYPREAKVQWKVDNALQSGNSQESVTEQDSKDSTYSLSSTLTLSKADYEKHKVYACEVTHQGLSSPVTKSFNRGEC
